According to US20200087380A1 (Chugai, published 2020):
Where “and” joins values, the source holds several entries; their conditions need not be identical. Equal values may be shown once. Read-outs that look alike come from different tables or passages of the source.

T1: hIL6R (human, UniProt P08887 20-357, limits assumed)
T1 construct: Printed as hIL6R
T1 sequence (looked up): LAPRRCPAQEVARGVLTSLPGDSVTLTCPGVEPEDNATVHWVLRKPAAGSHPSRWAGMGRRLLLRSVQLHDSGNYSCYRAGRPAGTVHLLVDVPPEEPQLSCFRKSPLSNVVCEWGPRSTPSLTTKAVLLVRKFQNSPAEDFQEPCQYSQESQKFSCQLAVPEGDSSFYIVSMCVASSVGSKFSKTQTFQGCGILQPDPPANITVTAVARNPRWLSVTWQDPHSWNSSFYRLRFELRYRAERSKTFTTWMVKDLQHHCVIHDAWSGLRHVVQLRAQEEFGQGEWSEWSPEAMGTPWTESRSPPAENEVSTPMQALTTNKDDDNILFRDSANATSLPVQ


Columns and labels:
Assay in all cases: SPR (Biacore T100), antibody captured on Protein A/G chip, antigen as analyte, 25 C, 1:1 Langmuir fit
GPC3 [1] = biological target: T2, GPC3 (UniProt P51654 25-563, limits assumed)
T2 construct: also called glypican-3
T2 sequence (P51654 25-563 limits assumed): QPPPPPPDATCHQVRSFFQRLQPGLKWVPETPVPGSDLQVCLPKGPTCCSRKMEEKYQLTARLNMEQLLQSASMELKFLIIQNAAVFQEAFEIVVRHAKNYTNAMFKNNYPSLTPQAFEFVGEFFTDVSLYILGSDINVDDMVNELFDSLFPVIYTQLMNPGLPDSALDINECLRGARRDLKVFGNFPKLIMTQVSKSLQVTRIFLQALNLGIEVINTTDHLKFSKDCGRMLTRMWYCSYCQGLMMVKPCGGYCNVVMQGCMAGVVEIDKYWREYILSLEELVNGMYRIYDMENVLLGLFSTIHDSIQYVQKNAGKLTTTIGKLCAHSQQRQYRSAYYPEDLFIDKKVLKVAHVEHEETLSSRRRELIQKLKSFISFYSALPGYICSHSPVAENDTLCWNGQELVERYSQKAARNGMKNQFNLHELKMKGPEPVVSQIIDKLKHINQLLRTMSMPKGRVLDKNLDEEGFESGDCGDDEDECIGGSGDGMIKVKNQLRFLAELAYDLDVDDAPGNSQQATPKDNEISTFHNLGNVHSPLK
Procedure: (§1) Interactions between a target antibody and hIL6R or GPC3 were analyzed using Biacore T100 (GE Healthcare). HBS-EP+(GE Healthcare) was used for the running buffer, and the measurement temperature was 25° C. Protein A/G (Thermo Scientific) was immobilized on the Series S Sensor Chip CMS (GE Healthcare) by amine coupling, and was used as a chip. A target antibody was captured onto the chip, and interacted with each antigen diluted with running buffer. Antibodies captured on the chip were washed off by reacting with 10 mM glycine-HCl (pH 1.5) to regenerate the chip to be used repeatedly.
(§2) More specifically, the association rate constant ka (L/mol/s) and dissociation rate constant kd (1/s) were calculated by global fitting sensorgrams obtained by measuring with the Biacore Evaluation Software in a 1:1 Langmuir binding model, followed by calculation of dissociation constant KD (mol/L) from those values.

hIL6R = biological target: T1, hIL6R
Procedure: as §1, §2

GPC3 [2] = biological target: T2, GPC3; remark: listed apart in the source
Procedure: as §1, §2

Kd (GPC3 [1]) [nM] | koff (GPC3 [1]) [s⁻¹] | kon (GPC3 [1]) [M⁻¹ s⁻¹] | Kd (hIL6R) | koff (hIL6R) [s⁻¹] | kon (hIL6R) [M⁻¹ s⁻¹] | Kd (GPC3 [2]) [nM] | koff (GPC3 [2]) [s⁻¹] | kon (GPC3 [2]) [M⁻¹ s⁻¹] | Binder
1.5 | 0.0004 | 270000 |  |  |  |  |  |  | anti-GPC3 antibody with H chain constant region TH13 (K147E, Q175E) and L chain constant region TL16 (T180K, S131K, Q160K) (antibody, human IgG1, kappa, IgG1/kappa; also called TH13/TL16) heavy: not shown light: DIVMTQSPLSLPVTPGEPASISCQASESLVHSNRNTYLHWYLQKPGQSPQLLIYKVSNRFSGVPDRFSGSGSGTDFTLKISRVEAEDVGVYYCSQNTHVPPTFGQGTKVEIERTVAAPSVFIFPPSDEQLKSGTAKVVCLLNNFYPREAKVQWKVDNALQSGNSKESVTEQDSKDSTYSLSSTLKLSKADYEKHKVYACEVTHQGLSSPVTKSFNRGEC
 |  |  | 2.6 nM and 2.8 nM | 0.00041 | 150000 | 1.3 | 0.00036 | 270000 | 4ch_001 (anti-IL6R MH0-G1d/ML0-k0 and anti-GPC3 GpH7-G1d/GpL16-k0, no CH1/CL or KiH modification) (bispecific antibody, human IgG1, kappa, Four chains co-expressed without pairing control) heavy 1: not shown light 1: not shown heavy 2: not shown light 2: DIVMTQSPLSLPVTPGEPASISCQASESLVHSNRNTYLHWYLQKPGQSPQLLIYKVSNRFSGVPDRFSGSGSGTDFTLKISRVEAEDVGVYYCSQNTHVPPTFGQGTKVEIERTVAAPSVFIFPPSDEQLKSGTASVVCLLNNFYPREAKVQWKVDNALQSGNSQESVTEQDSKDSTYSLSSTLTLSKADYEKHKVYACEVTHQGLSSPVTKSFNRGEC
 |  |  | 2.8 nM | 0.00047 | 170000 | 1.4 | 0.00038 | 270000 | 4ch_004 (anti-IL6R MH0-TH2k/ML0-TL17 and anti-GPC3 GpH7-TH13h/GpL16-TL16; KiH + CH1/CL_1) (bispecific antibody, human IgG1, kappa, IgG1/kappa bispecific with knob (k) and hole (h) H chains) heavy 1: not shown light 1: not shown heavy 2: not shown light 2: DIVMTQSPLSLPVTPGEPASISCQASESLVHSNRNTYLHWYLQKPGQSPQLLIYKVSNRFSGVPDRFSGSGSGTDFTLKISRVEAEDVGVYYCSQNTHVPPTFGQGTKVEIERTVAAPSVFIFPPSDEQLKSGTAKVVCLLNNFYPREAKVQWKVDNALQSGNSKESVTEQDSKDSTYSLSSTLKLSKADYEKHKVYACEVTHQGLSSPVTKSFNRGEC
1.4 | 0.00039 | 280000 |  |  |  |  |  |  | anti-GPC3 antibody with H chain constant region TH2 (Q175K) and L chain constant region TL17 (T180E, S131E, Q160E) (antibody, human IgG1, kappa, IgG1/kappa; also called TH2/TL17) heavy: not shown light: DIVMTQSPLSLPVTPGEPASISCQASESLVHSNRNTYLHWYLQKPGQSPQLLIYKVSNRFSGVPDRFSGSGSGTDFTLKISRVEAEDVGVYYCSQNTHVPPTFGQGTKVEIERTVAAPSVFIFPPSDEQLKSGTAEVVCLLNNFYPREAKVQWKVDNALQSGNSEESVTEQDSKDSTYSLSSTLELSKADYEKHKVYACEVTHQGLSSPVTKSFNRGEC
 |  |  | 2.4 nM | 0.00059 | 240000 | 1.4 | 0.00041 | 290000 | 4ch_010 (anti-IL6R MH0-TH15k/ML0-TL19 and anti-GPC3 GpH7-TH2h/GpL16-TL17; KiH + CH1/CL_2) (bispecific antibody, human IgG1, kappa, IgG1/kappa bispecific with knob (k) and hole (h) H chains) heavy 1: not shown light 1: not shown heavy 2: not shown light 2: DIVMTQSPLSLPVTPGEPASISCQASESLVHSNRNTYLHWYLQKPGQSPQLLIYKVSNRFSGVPDRFSGSGSGTDFTLKISRVEAEDVGVYYCSQNTHVPPTFGQGTKVEIERTVAAPSVFIFPPSDEQLKSGTAEVVCLLNNFYPREAKVQWKVDNALQSGNSEESVTEQDSKDSTYSLSSTLELSKADYEKHKVYACEVTHQGLSSPVTKSFNRGEC
1.3 | 0.00036 | 270000 |  |  |  |  |  |  | anti-GPC3 antibody with H chain constant region G1d and L chain constant region k0 (GpH7-G1d / GpL16-k0) (antibody, human IgG1, kappa, IgG1/kappa; also called G1d/k0; native G1d/k0) heavy: not shown light: DIVMTQSPLSLPVTPGEPASISCQASESLVHSNRNTYLHWYLQKPGQSPQLLIYKVSNRFSGVPDRFSGSGSGTDFTLKISRVEAEDVGVYYCSQNTHVPPTFGQGTKVEIERTVAAPSVFIFPPSDEQLKSGTASVVCLLNNFYPREAKVQWKVDNALQSGNSQESVTEQDSKDSTYSLSSTLTLSKADYEKHKVYACEVTHQGLSSPVTKSFNRGEC
 |  |  | 2.8 nM | 0.00046 | 160000 | 1.5 | 0.00039 | 260000 | 4ch_008 (anti-IL6R MH0-TH13k/ML0-TL16 and anti-GPC3 GpH7-TH2h/GpL16-TL17; KiH + CH1/CL_1) (bispecific antibody, human IgG1, kappa, IgG1/kappa bispecific with knob (k) and hole (h) H chains) heavy 1: not shown light 1: not shown heavy 2: not shown light 2: DIVMTQSPLSLPVTPGEPASISCQASESLVHSNRNTYLHWYLQKPGQSPQLLIYKVSNRFSGVPDRFSGSGSGTDFTLKISRVEAEDVGVYYCSQNTHVPPTFGQGTKVEIERTVAAPSVFIFPPSDEQLKSGTAEVVCLLNNFYPREAKVQWKVDNALQSGNSEESVTEQDSKDSTYSLSSTLELSKADYEKHKVYACEVTHQGLSSPVTKSFNRGEC
 |  |  | 2.2 nM | 0.00043 | 200000 | 1.2 | 0.00042 | 340000 | 4ch_006 (anti-IL6R MH0-TH2k/ML0-TL17 and anti-GPC3 GpH7-TH15h/GpL16-TL19; KiH + CH1/CL_2) (bispecific antibody, human IgG1, kappa, IgG1/kappa bispecific with knob (k) and hole (h) H chains) heavy 1: not shown light 1: not shown heavy 2: not shown light 2: DIVMTQSPLSLPVTPGEPASISCQASESLVHSNRNTYLHWYLQKPGQSPQLLIYKVSNRFSGVPDRFSGSGSGTDFTLKISRVEAEDVGVYYCSQNTHVPPTFGQGTKVEIERTVAAPSVFIFPPSDKQLKSGTAKVVCLLNNFYPREAKVQWKVDNALQSGNSKESVTEQDSKDSTYSLSSTLKLSKADYEKHKVYACEVTHQGLSSPVTKSFNRGEC
0.99 | 0.00038 | 390000 |  |  |  |  |  |  | anti-GPC3 antibody with H chain constant region TH15 (K147E, Q175E, K213E) and L chain constant region TL19 (T180K, S131K, Q160K, E123K) (antibody, human IgG1, kappa, IgG1/kappa; also called TH15/TL19) heavy: not shown light: DIVMTQSPLSLPVTPGEPASISCQASESLVHSNRNTYLHWYLQKPGQSPQLLIYKVSNRFSGVPDRFSGSGSGTDFTLKISRVEAEDVGVYYCSQNTHVPPTFGQGTKVEIERTVAAPSVFIFPPSDKQLKSGTAKVVCLLNNFYPREAKVQWKVDNALQSGNSKESVTEQDSKDSTYSLSSTLKLSKADYEKHKVYACEVTHQGLSSPVTKSFNRGEC
